Like-named read-outs stand apart in the source and are kept apart here.
B1: immobilized lactoferrin: human milk lactoferrin (Sigma) coated on tissue culture wells overnight at 4° C (protein, UniProt P02788 20-710, looked up)
Lactotransferrin: GRRRSVQWCAVSQPEATKCFQWQRNMRKVRGPPVSCIKRDSPIQCIQAIAENRADAVTLDGGFIYEAGLAPYKLRPVAAEVYGTERQPRTHYYAVAVVKKGGSFQLNELQGLKSCHTGLRRTAGWNVPIGTLRPFLNWTGPPEPIEAAVARFFSASCVPGADKGQFPNLCRLCAGTGENKCAFSSQEPYFSYSGAFKCLRDGAGDVAFIRESTVFEDLSDEAERDEYELLCPDNTRKPVDKFKDCHLARVPSHAVVARSVNGKEDAIWNLLRQAQEKFGKDKSPKFQLFGSPSGQKDLLFKDSAIGFSRVPPRIDSGLYLGSGYFTAIQNLRKSEEEVAARRARVVWCAVGEQELRKCNQWSGLSEGSVTCSSASTTEDCIALVLKGEADAMSLDGGYVYTAGKCGLVPVLAENYKSQQSSDPDPNCVDRPVEGYLAVAVVRRSDTSLTWNSVKGKKSCHTAVDRTAGWNIPMGLLFNQTGSCKFDEYFSQSCAPGSDPRSNLCALCIGDEQGENKCVPNSNERYYGYTGAFRCLAENAGDVAFVKDVTVLQNTDGNNNEAWAKDLKLADFALLCLDGKRKPVTEARSCHLAMAPNHAVVSRMDKVERLKQVLLHQQAKFGRNGSDCPDKFCLFQSETKNLLFNDNTECLARLHGKTTYEKYLGPQYVAGITNLKKCSTSPLLEACEFLRK
modifications: immobilized
notes: human milk lactoferrin (Sigma) coated on tissue culture wells overnight at 4° C
B2: lactoferrin: 78-80 kilodalton multifunctional glycoprotein of external secretions and neutrophil secondary granules (protein, UniProt P02788 20-710, looked up)
Lactotransferrin: B1 Lactotransferrin

Experiments:
eosinophils [1] = assay: Eosinophil degranulation: EDN release by ELISA; type: cell-based, human; settings: 3 to 100 micrograms per milliliter immobilized, 4 hours at 37° C, maximum at 100 micrograms per milliliter
Method: Eosinophils (2×10^5) were incubated in the presence and absence of 100 picograms per milliliter of GM-CSF in RPMI 1640 containing 1 milligram per milliliter of HSA for 4 hours at 37° C. in 5 percent CO2 in tissue culture wells precoated with lactoferrin or secretory IgA as above. Total incubation volume was 0.2 milliliters. Reactions were stopped by centrifugation at 300 g for 5 minutes at 4° C., and supernatants were stored at −20° C. until measurement of eosinophil-derived neurotoxin (EDN) content by specific ELISA (MBL International, Watertown, Mass.). Spontaneous release of EDN was determined with cells incubated in HSA-coated wells.

eosinophils [2] = assay: Eosinophil superoxide production (cytochrome c reduction) in protein-coated tissue culture wells; type: cell-based, human
Method: Neutrophils were isolated from venous blood of healthy adult volunteers by density gradient centrifugation through lymphocyte separation medium (BioWhittaker; Walkersville, Md.) as described previously (Haskell M. D., et al., Blood 86:4627-4637 (1995)) with one modification. Isotonicity was restored following the brief hypotonic lysis steps by the addition of 2× concentrated Hank's Balanced Salt Solution (HBSS) (Gibco; Grand Island, N.Y.) (without Ca^2+ and Mg^2+) containing 5 mM HEPES, pH 7.4. The cells were suspended in HEPES (10 mM)-buffered HBSS (with Ca^2+ and Mg^2+), pH 7.4, containing 1 milligram per milliliter of human serum albumin (HSA) (Sigma Chemical Co.) (HEPES-HBSS-HSA buffer). Neutrophil purity was routinely greater than 95 percent, with eosinophils representing the remainder of the cells. Eosinophils were isolated from the neutrophil preparations by negative selection (Hansel T. T., et al., J. Immunol. Meth. 145:105-10 (1991)) using anti-CD16 immunomagnetic beads as described by the manufacturer (Miltenyi Biotec, Inc., Auburn, Calif.). The eosinophils were suspended in HEPES-HBSS-HSA buffer. Eosinophil purity was routinely greater than 95 percent as determined by counting Wright-stained cytospin preparations. In some assays, an aliquot of the neutrophil preparation was held on ice for later use.
Superoxide production was measured essentially as described elsewhere (Motegi, Y., and H. Kita, J. Immunol. 161:4340 (1998)). Briefly, wells in a 96-well (flat bottom) tissue culture plate (Corning, Inc.; Corning, N.Y.) were coated with human milk lactoferrin (Sigma Chemical Co.) or human secretory IgA (ICN Biomedical; Aurora, Ohio) by incubation with 50 microliters of the indicated concentrations of the proteins in phosphate buffered saline (PBS) overnight at 4° C. Non-specific protein binding sites were blocked by subsequent incubation with 100 microliters of 25 milligrams per milliliter of HSA in PBS for 2 hours at 37° C., and the tissue culture wells were washed twice with PBS before use. Aliquots (5×10^4 cells) of eosinophils or neutrophils were added to the wells and were incubated in HEPES-HBSS—HSA buffer containing 50 micromolar cytochrome c (Sigma Chemical Co.) for 120 minutes at 37° C. in a Ceres UV900HDi microplate reader (Bio-Tek Instruments, Inc., Winooski, Vt.). Total incubation volume was 0.2 milliliters. Absorbance at 550 nanometers was recorded at 15-minute intervals, and superoxide production was calculated as described previously (Motegi, Y., and H. Kita, J. Immunol. 161:4340 (1998)). Results are expressed as nanomoles superoxide per 10^5 cells after subtraction of spontaneous production, which was measured in tissue culture wells coated only with HSA. GM-CSF (R & D Systems; Minneapolis, Minn.), porcine heparin (Sigma Chemical Co.), or chondroitin sulfate C (Sigma Chemical Co.) was added to the incubation mixtures in some assays as indicated.

eosinophils [3] = assay: Eosinophil leukotriene C4 production by ELISA; type: cell-based, human; settings: 1 hour
Method: Eosinophils (2×10^5) were incubated in the presence and absence of 100 pg/ml GM-CSF in RPMI 1640 containing 10 mM HEPES for 1 hr at 37° C. in tissue culture wells precoated with lactoferrin or secretory IgA as above with one modification. The tissue culture wells were not treated with HSA and HSA was not added to the incubation buffer to minimize loss of leukotriene C4. Total incubation volume was 0.2 ml. Reactions were stopped by centrifugation at 300 g for 5 min at 4° C., and supernatants were stored at −20° C. until measurement of leukotriene C4 content by a leukotriene C4/D4/E4 ELISA (Amersham Pharmacia Biotech; Piscataway, N.J.). Spontaneous leukotriene C4 production was determined with eosinophils incubated in untreated tissue culture wells.

neutrophils = assay: Neutrophil superoxide production (cytochrome c reduction) in protein-coated tissue culture wells; type: cell-based, human
Method: Neutrophils were isolated from venous blood of healthy adult volunteers by density gradient centrifugation through lymphocyte separation medium (BioWhittaker; Walkersville, Md.) as described previously (Haskell M. D., et al., Blood 86:4627-4637 (1995)) with one modification. Isotonicity was restored following the brief hypotonic lysis steps by the addition of 2× concentrated Hank's Balanced Salt Solution (HBSS) (Gibco; Grand Island, N.Y.) (without Ca^2+ and Mg^2+) containing 5 mM HEPES, pH 7.4. The cells were suspended in HEPES (10 mM)-buffered HBSS (with Ca^2+ and Mg^2+), pH 7.4, containing 1 milligram per milliliter of human serum albumin (HSA) (Sigma Chemical Co.) (HEPES-HBSS-HSA buffer). […] Eosinophil purity was routinely greater than 95 percent as determined by counting Wright-stained cytospin preparations. […]
Superoxide production was measured essentially as described elsewhere (Motegi, Y., and H. Kita, J. Immunol. 161:4340 (1998)). […] Aliquots (5×10^4 cells) of eosinophils or neutrophils were added to the wells and were incubated in HEPES-HBSS—HSA buffer containing 50 micromolar cytochrome c (Sigma Chemical Co.) for 120 minutes at 37° C. in a Ceres UV900HDi microplate reader (Bio-Tek Instruments, Inc., Winooski, Vt.). […] Results are expressed as nanomoles superoxide per 10^5 cells after subtraction of spontaneous production, which was measured in tissue culture wells coated only with HSA. […]

eosinophils [4] = assay: Flow cytometric analysis of binding of lactoferrin by eosinophils; design: species or system human
Method: Eosinophils (10^6 cells) were incubated with or without the indicated concentrations of lactoferrin in 100 microliters of HEPES-HBSS-HSA buffer for 90 minutes at 4° C. The cells were collected by centrifugation at 300 g for 5 minutes at 4° C., and then incubated with 1.5 micrograms FITC-conjugated polyclonal anti-lactoferrin (Sigma Chemical Co.) or FITC-conjugated rabbit IgG (Sigma Chemical Co.) in 25 microliters PBS (pH 7.2) containing 0.1 percent gelatin and 0.1 percent azide (PBS-gel-azide) for 30 minutes on ice. The cells were washed twice in ice-cold PBS-gel-azide and were suspended in PBS-gel-azide buffer containing 1 percent formaldehyde for analysis by flow cytometry. Fluorescence intensity of 10,000 cells in each sample was measured using a FACScan flow cytometer (Becton-Dickinson; San Jose, Calif.).

[5] = test system: lactoferrin receptor on neutrophils; settings: Boxer et al. 1982, cited from earlier work

Molecule	net release of EDN (eosinophils [1])	stimulation of eosinophil superoxide production (in words) (eosinophils [2]; 1 to 100 micrograms per milliliter of the protein, 2 hours at 37° C)	concentration giving maximum (peak) superoxide production (eosinophils [2]; 2-hour time point, absence of GM-CSF)	superoxide production with immobilized lactoferrin and immobilized secretory IgA in combination (eosinophils [2]; 3 or 10 micrograms per milliliter lactoferrin plus 1 or 3 micrograms per milliliter secretory IgA, n=4)	maximum response of superoxide production (eosinophils [2]; 30 micrograms per milliliter immobilized, 2-hour time point, five assays, corrected for spontaneous production)	eosinophil superoxide production (eosinophils [2]; 30 micrograms per milliliter immobilized, Example 3 assays (same donors as neutrophils), spontaneous value subtracted)	stimulation of eosinophil superoxide production (in words) (eosinophils [2]; immobilized at concentrations less than 3 micrograms per milliliter)	potency relative to immobilized secretory IgA (eosinophils [2]; superoxide production, same assays)	leukotriene C4 production (in words) (eosinophils [3]; 3 to 100 micrograms per milliliter immobilized, no GM-CSF)	leukotriene C4 production (eosinophils [3]; 10 micrograms per milliliter immobilized lactoferrin alone)	leukotriene C4 production (eosinophils [3]; 10 micrograms per milliliter immobilized lactoferrin together with 100 picograms per milliliter GM-CSF)	stimulation of neutrophil superoxide production (in words) (neutrophils; 1 to 100 micrograms per milliliter immobilized, up to 2 hours)	neutrophil superoxide production as percent of eosinophil superoxide production stimulated by 30 micrograms per milliliter immobilized lactoferrin (neutrophils; 100 microgram per milliliter immobilized lactoferrin)	fluorescence intensity with FITC-conjugated anti-lactoferrin antibody (eosinophils [4]; 30 micrograms per milliliter soluble lactoferrin, 90 minutes at 4° C)	fluorescence intensity with FITC-conjugated anti-lactoferrin antibody (eosinophils [4]; 100 micrograms per milliliter lactoferrin)	lactoferrin concentration at which binding by eosinophils is saturated (eosinophils [4]; flow cytometry analysis, approximately 0.4 micromolar)	Kd ([5]; read-out: dissociation constant of lactoferrin receptor described for neutrophils)	Kd ([5]; read-out: dissociation constant of lactoferrin receptor described on neutrophils)
B1	≤ 1000 nanograms of EDN per 10^6 eosinophils	stimulated marked superoxide production	30 micrograms per milliliter	additive levels of superoxide production	approximately 5 nanomoles superoxide per 10^5 eosinophils	5.5±1.4 nanomoles per 10^5 eosinophils	did not appear to stimulate superoxide production	approximately one-third	stimulated only low levels of leukotriene C4	115 picograms leukotriene C4 per 10^6 eosinophils	955 picograms leukotriene C4 per 10^6 eosinophils	did not produce significant superoxide production	25%					
B2														marked increase in the fluorescence intensity	did not produce any further increase in the level of fluorescence intensity	30 micrograms per milliliter	~200 nM	~200 nM

Source: patent US20040259770A1, “Method for determining leukocyte activation” (Rush University Medical Center, priority 2003, published 2004)
